± gives the uncertainty stated by the source.

The nature of the data set: amyloid nucleation score (Sup35N fusion, yeast selection) (log enrichment); library NNK1; higher = more nucleation; inactive = no reads after selection. A digest of the protocol: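 Plasmid inserts were Illumina-sequenced at input and output from psi-negative yeast expressing Sup35N fused to peptides of 20 random codons. The yeast were induced with 100 μM copper sulfate for 24 hours and grown 7 days at 30°C on medium lacking adenine and uracil, and sequences with under 100 input reads were excluded. Nucleation score is the DiMSum log enrichment of output over input reads, centred on the mode score of non-aggregating sequences.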
Regarding GNFKAMWFYPYRRCWQCT, the amyloid nucleation score was -0.944 ± 1.1.
Consider GNGHWQQVG, for which the amyloid nucleation score is 0.001 ± 0.33.
The entry for GNLFITACFHAFVIWFHNGN is “inactive”; for GNSSNAMKFEIHISSDHVAY it is 0.845 ± 0.14; for GNTSMILSPA it is -0.511 ± 1.1.
The figure for GNVAWYTSIGCGGMILWADF is -0.124 ± 0.76; for GPCNTRSCV it is -0.037 ± 0.43; for GPPSLYTWTAYCELSRRPEG it is 0.515 ± 0.66.
The figure for GPPSWSELDFHYCVGGWFYP is -0.456 ± 0.56; for GPSVPLGVFEKKTAFLKKTL it is -0.328 ± 0.79.
Consider GQAWKDAVQNYDMLAYMLKG, for which the amyloid nucleation score is -0.375 ± 0.54.
For GQEVHISIVNVLQFEYNRYD the value was 6.074 ± 0.05; for GQFEFCMFAQYGAS, -1.14 ± 2.4.
The figure for GQIGACVPLIGVAMGYLS is -0.418 ± 1.5.
The figure for GQLLCWVASNYEGFNWVYKI is -0.161 ± 0.53; for GQMGPMKREDGVLFVVTREN it is -0.255 ± 1.1; for GRAYGSVCILRLGC it is 0.835 ± 0.63.
Substance GRDRSWDIRWLYTLTEPTWH showed an amyloid nucleation score of -1.62 ± 2.7.
On to GREVGYVKLMDRPWPYRPAE, for which the amyloid nucleation score worked out at 0.191 ± 0.44.
The figure for GRFKWCGCNNTLWVGISRN is 1.9 ± 0.15; for GRGLADISYVYRDVWICLAI it is 0.83 ± 0.43.
GRHRMVWGH returned an amyloid nucleation score of 0.345 ± 0.93.
The entry for GRLHRRDMIGRHVDDSGPMS is “inactive”.
With GRLIGDSWLGYTKSGPGRKR, the amyloid nucleation score entry is “inactive”.
As for GRLTLSRGRCCQGSLNTVYP, the amyloid nucleation score amounted to 0.007 ± 0.75.
In turn, GRPLCSRPMILHMHNITLRM gave an amyloid nucleation score of 1.05 ± 0.97.
For GRSAVAFISPPLSLRIAQCP the value was 0.252 ± 0.28; for GRSCFGEHILNTPAISCNIT, -0.288 ± 0.35; for GRSSTRRNLIVDQSSVSERC, -0.009 ± 0.53.
Substance GRSTNSSDISNHMRNS registered an amyloid nucleation score of 0.961 ± 0.31.
GRTFVHSLWACNNSYCSL showed an amyloid nucleation score of 6.85 ± 0.088.
The figure for GRTLVLDFTHHPPILRVPLR is 0 ± 0.48.
The figure for GRVFAVSYFVRAGLVNEG is 0.082 ± 0.7; for GRVFSFMIGFFVALTERTRA it is -0.037 ± 1.7; for GRVQGNFLINRVCRWWGVAG it is 0.182 ± 0.56.
For GSADMRLDLQVVGCMTCRFE, the amyloid nucleation score is 0.386 ± 1.1.
GSADSFRGYGCFILVKATWY came in with an amyloid nucleation score of 0.717 ± 0.46.
The figure for GSATRTPVITQRICLPVGCR is -0.691 ± 0.56.
Regarding GSCFLCKI, the amyloid nucleation score stood at 0.686 ± 0.53.
The figure for GSCLFVRGSFVDVGRLFESV is 0.643 ± 0.67.
For GSDCSKAAFDPPFRSYDNAT the value was 0.429 ± 0.33.
For the substance GSDNLDFRCNWVYN, the amyloid nucleation score amounted to 0.616 ± 0.69.
The figure for GSHIVLSSFFGMLMLWGVDP is 0.56 ± 0.39.
The figure for GSHNAR is 0.086 ± 0.97; for GSHYP it is 0.586 ± 0.56.
For GSIIMWHYGYYHGCNFYCCH the value was 6.98 ± 0.07.
Take GSLSVAATSFTVMYRVKLVF: the amyloid nucleation score worked out at 0.085 ± 0.58.
The figure for GSMEHCNRNRFFFMGERLLR is -1.1 ± 2.7.
The figure for GSPMFLRIYLETYLPTYELS is 0.739 ± 0.42; for GSTCIRTGSVIVGRL it is 0.301 ± 0.28.
The figure for GSTNERYAKNGTS is 0.32 ± 0.68; for GSVCHILVGWVAYMWVF it is -1.18 ± 1.2.
The substance GSVINGWRRYLFVISILLGL yielded an amyloid nucleation score of -0.374 ± 0.32.
The substance GSWCSRIK had an amyloid nucleation score of 0.958 ± 0.35.
For GSYFGKGSVK the value was 0.563 ± 0.97; for GSYLCLMTFFSLYEQHSCCC, “inactive”.
For GTDYIKVSASPRSFMYDSSV the value was 1.88 ± 0.62; for GTFSDAFVLLIFCLYGINYL, 1.54 ± 0.53.
The figure for GTHLYS is 0.78 ± 0.38.
In the case of GTVVG, the amyloid nucleation score was found to be 0.041 ± 0.54.
The substance GTWLSMLDSSV had an amyloid nucleation score of -0.32 ± 0.79.
For GTYLAFYSLSLCRYTKCLER the value was -0.22 ± 0.47; for GVACTARCMCKFNRHPGVCE, -0.274 ± 1.1.
For GVCALAHRAPIWDQFVGMLV the value was 0.109 ± 0.28.
For GVCRDAVGGVTYDK, the amyloid nucleation score is -0.363 ± 1.5.
In the case of GVCVKGKRWDAEGVLRNAYT, the amyloid nucleation score turned out to be 1.41 ± 0.46.
For GVFRLMDRNNI the value was 0.653 ± 0.61; for GVFSSQDTRAIDLCSGVYVM, 0.003 ± 1.2.
The figure for GVGEIVSNRFAIS is -0.409 ± 1; for GVGWISKPNHLDTFITTS it is 0.738 ± 0.35.
The figure for GVLGTGMRNCA is 0.277 ± 0.88; for GVLRSSTSTVRGSCAGFHRL it is 0.29 ± 0.43.
For GVMYLKRKLRCYMGINYVFH, the amyloid nucleation score is 0.074 ± 0.31.
The figure for GVNLRSNRESSVCDNWRGLR is 0.423 ± 0.42.
The figure for GVQWKLIFIGQCAVAVAWLA is -2.05 ± 1.8; for GVSMVGGHATLLG it is -0.206 ± 1.2.
For GVSSLLGRHRRGVSFEGDSV the value was -0.65 ± 0.54.
As to GVTYKPYGVSNW, the amyloid nucleation score was -0.616 ± 0.69.
The substance GVVCCTANF came in with an amyloid nucleation score of 5.68 ± 0.065.
For GVVGYGIWHSLGVRLIQNLC, the amyloid nucleation score turned out to be 0.389 ± 0.93.
Consider GVYARQIFYNS, for which the amyloid nucleation score came to 0.021 ± 0.24.
For GWDYLFFLFTFCYV the value was -0.771 ± 1.1; for GWQDSLYLYYFTKFCRNQGG, -0.559 ± 0.46; for GWQGL, -0.202 ± 0.53.
GYAFVY yielded an amyloid nucleation score of -0.037 ± 0.52.
For GYCTPNDPVIFWDFRVMTGS the value was -0.544 ± 0.3; for GYELSMKATIRVVCRAIYFC, 0.62 ± 0.41.
On to GYGNRNLALARGMLGQIL, for which the amyloid nucleation score was 0.215 ± 0.46.
For GYGWHLSANNPVSNIRCPRA the value was -0.407 ± 0.42; for GYLSHII, -0.112 ± 0.51; for GYMSKLEYLPTQLYLLSLRE, 0.85 ± 0.44.
On to GYNMTKAYQCVCFIGDLPGT, for which the amyloid nucleation score came out at 4.61 ± 0.13.
Consider GYNSVYHLSNVALR, for which the amyloid nucleation score came to 0.928 ± 0.32.
The substance GYNWGFVHCSYRSSHFGSGF came in with an amyloid nucleation score of 0.348 ± 0.26.
GYSAYRFGQCMSETGRRRIH displayed an amyloid nucleation score of 1.42 ± 0.72.
The substance GYSGLLYVSRVVSYLIHFWV had an amyloid nucleation score of 0.702 ± 0.47.
Consider GYSNFTNYLFQ, for which the amyloid nucleation score came out at 0.091 ± 0.28.
For GYTLRPNERPKIRQV the value was 0.244 ± 0.63; for HAFFHYWPVCQWV, 4.57 ± 0.1; for HATMVSALLVWGW, -0.286 ± 1.9.
For HCFYYCMANRL the value was 0.488 ± 0.24; for HCIPLALICGGSSSPVVEYL, 0.686 ± 0.43.
The figure for HCLSFMIFESNLIIFMNRIR is 0.222 ± 0.2; for HCMGGNLFLF it is -0.463 ± 0.47.
HCPELLLPPSKCTIINGNDK displayed an amyloid nucleation score of 1.52 ± 0.38.
As for HCPKAVGINEWPEMRFYVNL, the amyloid nucleation score was -0.05 ± 0.96.
Consider HDFYEDIVMEYVL, for which the amyloid nucleation score is 1.55 ± 0.51.
The figure for HDIAIMSSVGFSTAHDICSE is 0.26 ± 0.99; for HDPDPVDYGCGWVSVSCGVA it is 0.819 ± 0.82; for HDSSF it is -0.038 ± 0.56.
The figure for HESNMSMYYERYMLLSRNGS is 0.269 ± 0.23; for HFAPLFDYNLTGIKTLKTAD it is 0.1 ± 0.77; for HFASRLMRKEFAVRFLRGFS it is -0.608 ± 1.2.
The figure for HFCMGWVYLPELMYRFYMCF is -0.494 ± 0.35.
HFFDCHNSIEVSLISSCVCV yielded an amyloid nucleation score of 3.97 ± 0.065.
Regarding HFFNVYGSNMVISSWDSRCE, the amyloid nucleation score was determined as 6.23 ± 0.076.
For the substance HFLVKCLLLLSVSSKLCVSR, the amyloid nucleation score came out at 0.564 ± 0.33.
For HFLVMITRL the value was 5.15 ± 0.091; for HFNFNFAQSRNEMLVASG, -1.16 ± 1.6.
For HFSGYMFCNPLTSGIVNATW the value was 6.404 ± 0.045; for HFSNIDNARNCSDSYWRYGI, 0.168 ± 0.3.
For HGLLHQVSVMPGIPSMAFNI the value was -0.016 ± 0.68; for HGMWNGFTILM, 3.26 ± 0.11; for HHKPRPNIQFFRYSCKERAS, 0.035 ± 1.
Consider HHLVISCDSLENASYRLCIQ, for which the amyloid nucleation score is 1.45 ± 0.43.
The figure for HHPYFSAMM is 0.22 ± 0.54.
The figure for HHTQE is -0.557 ± 1.6; for HIGIWTIPSRKEGR it is “inactive”; for HIKASDFIW it is -0.333 ± 0.31.
For HIMRDV the value was -1.13 ± 1.4.
HIMYSLKASSHWSPIVFSHH returned an amyloid nucleation score of 0.669 ± 0.59.
For HIPYVYGPIIRGEATYTEGV the value was -0.29 ± 1.2; for HIVNCVKML, 0.788 ± 0.63; for HKCWVDGIVY, 0.577 ± 0.48.
For HKTSKMLCLSI the value was 0.241 ± 0.9; for HLEGFYLGIWHGRSRVFSRN, 2.77 ± 0.23; for HLGGVWLLIHMRRSFPLDIW, 0.207 ± 0.7.
The figure for HLGLSNPFMMSFHV is -0.189 ± 0.34; for HLLSGMITCDDLHGCGLEGI it is 0.344 ± 0.35; for HLRCCIKTLRVSHYGGPALR it is -0.596 ± 0.37.
On to HLRNLKDFNVQPF, for which the amyloid nucleation score turned out to be 0.635 ± 1.2.
